Laboratory results published in patent US20190111149A1 (MEDITOPE BIOSCIENCES, published 2019).

B1: Peptide 19: Ac-…XRCGGGK with Duostatin; -Glu-vc-PAB-Duostatin-; X = (S)-2-amino-5-(3-methyl-3H-diazirin-3-yl) pentanoic acid (peptide)
peptide: not shown
modifications: N-terminal acetyl; X10 = (S)-2-amino-5-(3-methyl-3H-diazirin-3-yl)pentanoic acid; Glu-vc-PAB-Duostatin conjugated
notes: also called Peptide 19 (with Duostatin); Peptide 19 (with 1 Duostatin per peptide, DAR 2)
B2: Peptide 19: Ac-…XRCGGGK with Duostatin; -Glu-vc-PAB-Duostatin-; X=(S)-2-amino-5-(3-methyl-3H-diazirin-3-yl) pentanoic acid (peptide)
peptide: not shown
modifications: N-terminal acetyl; X at position 10 = (S)-2-amino-5-(3-methyl-3H-diazirin-3-yl)pentanoic acid; -Glu-vc-PAB-Duostatin conjugated
notes: 5-carbon chain at position 10
B3: Peptide 20: Ac-…XRCGGGK with Duostatin; -Glu-vc-PAB-Duostatin-; X=(S)-2-amino-6-(3-methyl-3H-diazirin-3-yl) hexanoic acid (peptide)
peptide: not shown
modifications: N-terminal acetyl; X at position 10 = (S)-2-amino-6-(3-methyl-3H-diazirin-3-yl)hexanoic acid; -Glu-vc-PAB-Duostatin conjugated

What was measured:
[1] = biological target: T1, Meditope enabled Trastuzumab; experiment: BLI Octet, antibody on anti-human Fc tips
T1 construct: also called Trastuzumab enabled

[2] = biological target: T2, Photo optimized trastuzumab; meditope enabled (Tmab); experiment: BLI Octet, antibody on anti-human Fc tips; Peptide 19, Table 9
T2 construct: also called photo-optimized trastuzumab V2; photo-optimized meditope enabled Trastuzumab variant 2

MBI_CD19_2; (MOR208) = experiment: BLI Octet, antibody on anti-human Fc tips
[3] = biological target: T3, Meditope enabled Clivatuzumab; experiment: BLI Octet, antibody on anti-human Fc tips
T3 construct: also called Clivatuzumab enabled

[4] = biological target: T4, Meditope enabled Ocaratuzumab; experiment: BLI Octet, antibody on anti-human Fc tips
T4 construct: also called Ocaratuzumab enabled

MBI_CD19_1; (SAR3419) = experiment: BLI Octet, antibody on anti-human Fc tips
[5] = biological target: T2, Photo optimized trastuzumab; meditope …; experiment: BLI Octet, antibody on anti-human Fc tips
[6] = biological target: T2, Photo optimized trastuzumab; meditope …; experiment: BLI Octet, antibody on anti-human Fc tips; remark: listed apart in the source
[7] = biological target: T5, Meditope enabled Lintuzumab; experiment: BLI Octet, antibody on anti-human Fc tip, peptide 37 nM
T5 construct: also called Lintuzumab enabled

[8] = biological target: T6, Meditope enabled Panitumumab; experiment: as above
T6 construct: also called Panitumumab enabled

[9] = biological target: T5, Meditope enabled Lintuzumab; experiment: BLI Octet, antibody on anti-human Fc tip, peptide 333 nM
[10] = biological target: T5, Meditope enabled Lintuzumab; experiment: BLI Octet, antibody on anti-human Fc tip, peptide 12 nM
[11] = biological target: T6, Meditope enabled Panitumumab; experiment: as above
[12] = biological target: T5, Meditope enabled Lintuzumab; experiment: BLI Octet, antibody on anti-human Fc tip, peptide 111 nM
[13] = biological target: T5, Meditope enabled Lintuzumab; experiment: BLI Octet, antibody on anti-human Fc tip, peptide 1000 nM; Peptide 20

T2 sequence (heavy, as listed by the source, chain 1 of 2): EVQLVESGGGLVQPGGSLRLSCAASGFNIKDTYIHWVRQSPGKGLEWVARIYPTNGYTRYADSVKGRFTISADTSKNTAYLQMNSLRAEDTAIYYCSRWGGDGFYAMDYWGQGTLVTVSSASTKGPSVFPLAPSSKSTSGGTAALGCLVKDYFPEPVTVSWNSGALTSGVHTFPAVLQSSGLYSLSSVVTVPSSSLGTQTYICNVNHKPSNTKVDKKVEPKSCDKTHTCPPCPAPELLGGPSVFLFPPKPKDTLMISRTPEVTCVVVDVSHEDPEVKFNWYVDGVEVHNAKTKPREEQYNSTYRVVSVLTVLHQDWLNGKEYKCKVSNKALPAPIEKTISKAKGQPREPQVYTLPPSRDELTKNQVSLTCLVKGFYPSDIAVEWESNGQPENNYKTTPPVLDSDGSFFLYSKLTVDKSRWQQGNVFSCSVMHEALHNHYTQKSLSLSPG
T2 sequence (light, as listed by the source, chain 2 of 2): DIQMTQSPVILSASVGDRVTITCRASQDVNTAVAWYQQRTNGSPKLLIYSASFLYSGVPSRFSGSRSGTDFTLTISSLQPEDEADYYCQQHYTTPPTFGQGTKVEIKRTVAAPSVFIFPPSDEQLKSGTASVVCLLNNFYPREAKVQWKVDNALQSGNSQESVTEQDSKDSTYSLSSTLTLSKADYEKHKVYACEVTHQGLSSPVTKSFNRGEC
T5 sequence (VH, as listed by the source, chain 1 of 2): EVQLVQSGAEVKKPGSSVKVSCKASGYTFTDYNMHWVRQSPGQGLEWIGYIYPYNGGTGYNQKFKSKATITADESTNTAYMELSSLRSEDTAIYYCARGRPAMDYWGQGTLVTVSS
T5 sequence (VL, as listed by the source, chain 2 of 2): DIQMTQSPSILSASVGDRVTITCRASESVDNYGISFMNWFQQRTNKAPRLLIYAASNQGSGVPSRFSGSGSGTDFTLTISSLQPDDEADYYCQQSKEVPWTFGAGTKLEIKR
T6 sequence (VH, as listed by the source, chain 1 of 2): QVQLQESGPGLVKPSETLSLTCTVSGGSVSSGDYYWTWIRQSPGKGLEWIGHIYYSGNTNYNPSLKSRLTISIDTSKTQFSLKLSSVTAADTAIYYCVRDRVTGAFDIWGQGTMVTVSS
T6 sequence (VL, as listed by the source, chain 2 of 2): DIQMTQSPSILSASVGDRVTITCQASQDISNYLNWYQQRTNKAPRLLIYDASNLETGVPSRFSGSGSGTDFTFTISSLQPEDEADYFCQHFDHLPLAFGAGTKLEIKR
Chain of MBI_CD19_2; (MOR208) (heavy, as listed by the source, chain 1 of 2): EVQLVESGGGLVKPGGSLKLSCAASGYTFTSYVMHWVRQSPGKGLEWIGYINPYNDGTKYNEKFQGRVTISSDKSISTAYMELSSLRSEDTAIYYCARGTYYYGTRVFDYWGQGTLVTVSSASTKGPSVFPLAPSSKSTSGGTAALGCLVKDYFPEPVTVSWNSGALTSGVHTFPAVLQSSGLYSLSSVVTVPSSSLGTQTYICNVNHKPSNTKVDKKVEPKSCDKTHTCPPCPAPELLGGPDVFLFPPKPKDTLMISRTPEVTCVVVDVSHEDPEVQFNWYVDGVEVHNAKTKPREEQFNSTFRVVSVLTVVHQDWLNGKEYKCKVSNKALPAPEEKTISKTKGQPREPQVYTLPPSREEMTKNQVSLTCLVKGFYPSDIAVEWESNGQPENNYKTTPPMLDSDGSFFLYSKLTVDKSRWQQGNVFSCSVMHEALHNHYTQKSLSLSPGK
Chain of MBI_CD19_2; (MOR208) (light, as listed by the source, chain 2 of 2): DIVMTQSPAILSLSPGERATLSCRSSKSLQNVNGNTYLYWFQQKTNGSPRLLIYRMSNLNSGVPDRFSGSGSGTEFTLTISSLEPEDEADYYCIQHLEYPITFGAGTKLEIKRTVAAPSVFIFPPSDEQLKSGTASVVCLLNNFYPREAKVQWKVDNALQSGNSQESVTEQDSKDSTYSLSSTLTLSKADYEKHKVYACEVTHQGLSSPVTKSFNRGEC
T3 sequence (heavy, as listed by the source, chain 1 of 2): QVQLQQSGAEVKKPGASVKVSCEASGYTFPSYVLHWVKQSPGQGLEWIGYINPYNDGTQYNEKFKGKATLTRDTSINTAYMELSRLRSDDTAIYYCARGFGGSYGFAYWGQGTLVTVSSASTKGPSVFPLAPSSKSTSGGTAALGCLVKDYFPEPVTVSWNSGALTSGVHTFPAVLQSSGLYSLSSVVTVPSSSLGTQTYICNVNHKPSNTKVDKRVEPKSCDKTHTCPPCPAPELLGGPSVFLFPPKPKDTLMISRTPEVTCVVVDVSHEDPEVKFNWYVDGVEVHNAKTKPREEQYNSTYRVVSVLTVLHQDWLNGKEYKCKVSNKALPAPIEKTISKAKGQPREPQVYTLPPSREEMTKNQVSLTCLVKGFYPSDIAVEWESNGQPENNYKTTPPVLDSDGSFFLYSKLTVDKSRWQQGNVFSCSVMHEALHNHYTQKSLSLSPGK
T3 sequence (light, as listed by the source, chain 2 of 2): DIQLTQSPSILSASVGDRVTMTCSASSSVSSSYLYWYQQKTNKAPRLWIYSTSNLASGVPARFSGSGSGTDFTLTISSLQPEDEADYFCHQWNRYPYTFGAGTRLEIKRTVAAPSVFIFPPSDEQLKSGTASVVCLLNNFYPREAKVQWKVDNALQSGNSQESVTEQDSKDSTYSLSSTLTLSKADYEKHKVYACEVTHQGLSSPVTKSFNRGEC
T4 sequence (heavy, as listed by the source, chain 1 of 2): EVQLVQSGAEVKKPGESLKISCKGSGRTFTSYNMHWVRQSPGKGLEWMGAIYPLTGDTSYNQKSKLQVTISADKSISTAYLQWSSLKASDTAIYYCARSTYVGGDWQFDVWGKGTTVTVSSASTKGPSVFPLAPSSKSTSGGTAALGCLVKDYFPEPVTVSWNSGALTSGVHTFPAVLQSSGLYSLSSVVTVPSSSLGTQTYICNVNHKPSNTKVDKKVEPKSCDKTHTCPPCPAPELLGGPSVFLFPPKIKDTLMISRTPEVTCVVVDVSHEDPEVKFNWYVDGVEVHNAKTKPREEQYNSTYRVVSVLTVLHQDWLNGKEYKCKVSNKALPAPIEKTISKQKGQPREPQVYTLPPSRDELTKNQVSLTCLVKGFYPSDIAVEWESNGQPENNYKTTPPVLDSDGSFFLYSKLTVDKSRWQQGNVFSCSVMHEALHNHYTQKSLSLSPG
T4 sequence (light, as listed by the source, chain 2 of 2): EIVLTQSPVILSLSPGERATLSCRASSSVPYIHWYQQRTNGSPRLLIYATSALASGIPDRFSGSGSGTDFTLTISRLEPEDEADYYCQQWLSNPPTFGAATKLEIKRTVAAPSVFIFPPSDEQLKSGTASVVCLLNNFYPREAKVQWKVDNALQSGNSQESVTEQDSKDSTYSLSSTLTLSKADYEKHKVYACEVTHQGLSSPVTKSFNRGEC
Chain of MBI_CD19_1; (SAR3419) (heavy, as listed by the source, chain 1 of 2): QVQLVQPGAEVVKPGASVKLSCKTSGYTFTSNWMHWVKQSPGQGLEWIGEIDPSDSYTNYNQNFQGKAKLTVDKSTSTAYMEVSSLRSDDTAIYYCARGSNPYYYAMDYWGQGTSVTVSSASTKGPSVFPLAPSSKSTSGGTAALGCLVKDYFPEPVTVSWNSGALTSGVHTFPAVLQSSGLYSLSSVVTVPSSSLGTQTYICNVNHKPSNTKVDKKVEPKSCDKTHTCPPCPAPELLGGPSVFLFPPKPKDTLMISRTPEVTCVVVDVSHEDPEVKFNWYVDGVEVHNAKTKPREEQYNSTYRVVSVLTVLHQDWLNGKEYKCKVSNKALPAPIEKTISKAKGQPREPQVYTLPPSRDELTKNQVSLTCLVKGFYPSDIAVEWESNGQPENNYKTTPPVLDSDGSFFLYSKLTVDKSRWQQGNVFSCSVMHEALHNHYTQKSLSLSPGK
Chain of MBI_CD19_1; (SAR3419) (light, as listed by the source, chain 2 of 2): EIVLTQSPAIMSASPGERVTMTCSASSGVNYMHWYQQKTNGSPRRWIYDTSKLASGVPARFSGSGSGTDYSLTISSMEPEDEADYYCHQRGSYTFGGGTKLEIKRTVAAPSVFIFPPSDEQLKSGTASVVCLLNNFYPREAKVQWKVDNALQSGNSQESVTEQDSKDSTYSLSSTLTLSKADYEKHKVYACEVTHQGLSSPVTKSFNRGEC
T1 sequence (heavy, as listed by the source, chain 1 of 2): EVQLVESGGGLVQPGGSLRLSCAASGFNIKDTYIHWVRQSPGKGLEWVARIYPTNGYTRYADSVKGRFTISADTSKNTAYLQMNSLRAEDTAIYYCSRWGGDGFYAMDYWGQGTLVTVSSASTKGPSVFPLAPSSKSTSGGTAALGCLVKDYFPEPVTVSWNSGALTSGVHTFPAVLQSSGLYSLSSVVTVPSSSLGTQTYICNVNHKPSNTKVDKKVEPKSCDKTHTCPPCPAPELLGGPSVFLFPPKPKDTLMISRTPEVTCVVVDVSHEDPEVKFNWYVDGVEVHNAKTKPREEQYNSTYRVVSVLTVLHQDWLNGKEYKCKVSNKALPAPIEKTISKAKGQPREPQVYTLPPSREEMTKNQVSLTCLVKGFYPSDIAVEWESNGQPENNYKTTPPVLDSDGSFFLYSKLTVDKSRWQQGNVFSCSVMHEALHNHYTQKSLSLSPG
T1 sequence (light, as listed by the source, chain 2 of 2): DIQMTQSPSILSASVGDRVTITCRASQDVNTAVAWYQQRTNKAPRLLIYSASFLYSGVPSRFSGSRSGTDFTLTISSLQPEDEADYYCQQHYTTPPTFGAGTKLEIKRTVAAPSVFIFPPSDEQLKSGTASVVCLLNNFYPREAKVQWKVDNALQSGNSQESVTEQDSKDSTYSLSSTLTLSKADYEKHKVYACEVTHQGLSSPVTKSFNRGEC

| Binder | Kd [1] [nM] | Kd [2] [nM] | Kd (MBI_CD19_2; (MOR208)) [nM] | binding result [3] | binding result [4] | binding result (MBI_CD19_1; (SAR3419)) | Kd [5] [nM] | Kd [6] [nM] | Kd [7] [nM] | Kd [8] [nM] | Kd [9] [nM] | Kd [10] [nM] | Kd [11] [nM] | Kd [12] [nM] | Kd [13] [nM] |
| --- | --- | --- | --- | --- | --- | --- | --- | --- | --- | --- | --- | --- | --- | --- | --- |
| B1 | 149 | 120 | 33.8 | no binding | no binding | no binding | 42.8 | 33.8 |  |  |  |  |  |  |  |
| B2 |  |  |  |  |  |  |  |  | 5680 | < 0.001 | 1170 | 55.5 | < 0.001 | 3000 |  |
| B3 |  |  |  |  |  |  |  |  | 1210 |  | 6550 | 246 |  | 3340 | 19800 |
